# Results as given in the DeepSol protein solubility set.
# Test: soluble on expression in E. coli; label from the status in PepcDB or PDB records
row,Sequence,soluble on expression in E. coli
1,MAHHHHHHMAAVTQQGNDTRKLRCNVYVASLPLDFDDDQLFDLFSPYGRISSARIMRSKGARQSRGYGFVLFRHASSAEKAIDSLVGYVIGGSRIQVRLAHPEASVAYSGQRGSRSGNSTPGALPEKTLPAASGVITPPPPSSAIISHPNDSGMMVQTYPITTMYPTMYPSVVPQIIAQPQAPVPAAMQQVVFLPQYAQQSNQSTPPTFYMMVPDAMQAVPPTLS,soluble
2,MGSDKIHHHHHHMELKARAVGVEIIPKGKIIYYSVPNGDEYERGDLVLVLGDFGLEVGKVLIPPREVVIDEVGYELKAVIRKLTDEDLEQYRKNVEDALKAFQICKQKIKEHGLPMKLLYAKYTFDRTRLIFFFSAEGRVDFRELVRDLAKIFKTRIELRQVGVRDEMKFFGGLGLCGLPTCCSTFLREFTSVTLKHAKKQQMMINPAKISGPCRRLLCCLTYEYDFYEKELEGIPDEGSTITYEGKRYKVVNVNVFLRTVTLFSEQEGEMIKLPFDYFRKGE,not soluble
3,SGRKIGSIVMNANPFTLGHQYLIEQACEQCDWVHLFVVKAENKDFSYADRMAMIKAGSKHLLNLTIHSGSDYIISRATFPSYFIKDQQVVNQSHTALDLSIFRHSIAPALGITHRFVGSEPICTVTRHYNQAMRRWLEEAHDASAPIQVVEIERSQQASQPISASRVRYLLKQFGFAAIADLVPKTTYSYLCQHYAEH,not soluble
4,SNTKKEIIWYKEKAQKTNYSVVYIHGFGASKNEIYPVPNNIAKALNANIFFTRLKGHGINNKNAFRGITTQDWLRDIDEAINIGKLIGDKLVLIGTSNGGTASIWALANYPNEINSAVLISPNIFPYDKRTNIVYYPWGRQIAYLITGGYNKFETKEYKRKEHPTIKSHSSRVQHVDAIIAMMGLVTLLNSYNFNEIKIPLIITHTPNDHTVDPIKINEFIKNYGGEKKDIPIILLENSHAHLPIGNQSYKSAQNTSYFTKYVFDFINKINK,not soluble
5,MGHHHHHHSHMANSAGSMANSAGSKEFAYQNKVEELTSYAVQIANEFQSGQVDMRRLYPYQDILSTRKTQFIIFNEEQQPYFLPEGFHHPPREQLKKSEWNKLKKGQTVTIRADGRFDDEVSLVAQPIFVQNEFKGAVLLISPISGVEQMVNQ,not soluble
6,GMELDDAYANGAYIEGAADYPPRWAASAEDFRNSLQDRARLNLSYGEGDRHKFDLFLPEGTPVGLFVFVHGGYWMAFDKSSWSHLAVGALSKGWAVAMPSYELCPEVRISEITQQISQAVTAAAKEIDGPIVLAGHSAGGHLVARMLDPEVLPEAVGARIRNVVPISPLSDLRPLLRTSMNEKFKMDADAAIAESPVEMQNRYDAKVTVWVGGAERPAFLDQAIWLVEAWDADHVIAFEKHHFNVIEPLADPESDLVAVITA,soluble
7,MTWEFENPLFVNSSGTAVGPKEKEGPLGHLFDKSYDEMHCNQKNWEMAERKLMEDAVQSALSKQNLKKEDIDIFLAGDLLNQNVTANYVARHLKIPFLCLFGACSTSMESIAISSALIDGGFAKRALAATSSHNATAERQFRYPTEYGGQKPGTATSTVTGSGAVVLSQQPGGIKITSATVGRVIDLGITDSQDMGSAMAPAAADTIKQHLEDLGRTPDDYDLILTGDLSGVGSPILKDLLKEEGINVGTKHNDCGLMIYTPDQQVFAGGSGCACSAVVTFAHIFKEIEAGRLNRVLVVATGALLSPTIIQQKESIPCIAHGVVFERAERGNALEHHHHHH,not soluble
8,SNAMKIVIAPDSYKESLSALEVATAIEQGFREIWPDADYLKLPLADGGEGTVEAMVEATAGRIVHVEVTGPLGHRVNAFYGLSGDARSAFIEMAAASGLEQVPPAQRDPLKTTSWGTGELIRHALDAGVEHIIIGIGGSATNDGGAGMVQALGARLRDAQGNDIAQGGIGLETLASIDISGLDKRLSACHIEVACDVTNPLTGKEGASAVFGPQKGATPEMIERLDTALTRYAHLIARDLHVDVLDLAGGGAAGGMGAALYAFCGAQLRRGIEIVTDALHLEACLADADLVITGEGRIDSQTIHGKVPIGVANIAKRYNKPVIGIAGSLTADVSVVHEHGLDAVFSVIYTICTLEDALKNASENVRMTARNVAATLKAGQQLR,soluble
9,GSSGGPNVPELILQLLQLEPEEDQVRARIVGCLQEPAKSRSDQPAPFSLLCRMADQTFISIVDWARRCMVFKELEVADQMTLLQNSWSELLVLDHIYRQVQYGKEDSILLVTGQEVELSTVAVQAGSLLHSLVLRAQELVLQLHALQLDRQEFVCLKFLILFSLDVKFLNNHSLVKDAQEKANAALLDYTLSHYPHSGDKFQQLLLSLVEVRALSMQAKEYLYHKHLGNEMPRNNLLIEMLQAKQT,soluble
10,MDSARTFESIVIIFNPNSTGDAPELAQQLHGKLKELLTYQPEITLQPTEHAGHAVDLAREAASKGGDVLVVSVSGDGGYNEVVNGVMQADNPRAVAAVLAAGNANDHSRIIGTKPLEEAIAEGRVHNIDLLRIHTGQKENEPLEYAHSYIGFGLTPVVATELEKGSKGALKEMVTVIKSFSEFQPFAIRQSDGKRRKFDSLVFANINEMAKYATLSEAEDHPSDGKFEVIVFPHMPKWRVLLTALKATTQGLGDQPSVSSYEFTTLKPLPYQMDGEVKSVEANVKVTVESAPQALATLG,soluble
11,MARLAIGGGSLCPAYGALRMQPVSTFPIYIVSIARARARLEKMLEGASGLGLDLRPVEGVDGKTISPDDWRDFDRRGFELRNGRHALPGEYGCYASHIKALETFLATDAPVAVIVEDDVAFTPDFSERVKAMVAAMPDDAIVKLTNHRRKGFKARKTSALGDTFGRCIYGPQGSSACYIISRRAAERFLKAARRMTLPFDRALECGWGYGTEVYITDKDFLPFGDPDTLVGTRDEYRGSKFARLKRVPAYLSSFYDNIARYIYAYRLEHHHHHH,soluble
12,GPGSMNLGHAAASSIVVKVAELAKKAFYRLKISSAYSSKLTEAVGTALMSADPEVPVDPNRRSGGHVIRNMIYQHDSSHNIEIVTGWKDQGTREYNQQIAPPAKLDLSPKHPCYPLNEQLVRCSLECPMEMKLAGRIASCNSERKNLMVCLTKNKSWKEEPASAWYKFF,not soluble
13,MSLSLPSSHFVLIAEEENNSYWRLVEKGAREAENQFDVLVEYKAPKRSNPEEQLKLIDMAISAKVDGIIVQAVNEEMFTPLINKAVDAGIPVITIDTDAPRSNRVAYIGTDNYYSGTIAGKAMLDDMEGDIHVAVITGSLESSHQKLRVQGFIDMISNEPRVTLVEVEASNISRLEAELKAHQLMEEHPHINAFYGTSALDGIGIVAAAEKLGLDDLYVIAFDTLPENLSLLEQEKIDAIVVQEPFEMGLKSVELLLDIREGQPYSMTNHTHTSIIRKPDLSLLQEHQRLGDEGHHHHHH,soluble
14,MSPAQIIRTSHSFPPSFTGTSSSAENSHAQSPQQVLTRAFVASGELNAAFGRTSTASAQDFTSLLGTLQRELEKKTPAFPDLAELANQLADAAMGDQGGHWLGRDEQQTLKGMIDRCKSQLAHTPASDASYDLLAQVCENLKKARLHQSISQMTGEAHAKVRGVPDLLALIQLDPDILAEKPVGMPSYVKFSSFICMAKARTAELSENLRNASNEVALLLHPHADTILEQGSLRLQIVGF,not soluble
15,AEQDMYLLRQSFDKYKTVSAGVPWFSALFGRDSLITASQTLMLNPEIAKETLMLLAAYQGKHEDEWREEAPGKILHELRLGEMARCQEIPHTPYYGTVDATPLWLMLYSEYYSWTHDRETLEQLWPHALAAMDWIDRNMQPSGYLTYHRKSKRGLDNQGWKDSGDCIVDRKGDLANGSIALSEVQAYVYAAKTRLAEIARMKKRLDLFERWQEEARSLKERFNQDFWIEDQDFCALALDGAGKQVDSITSNPGHCLLLGIFTPERAYSVAERLRAPDMFNGWGIRTLSSLSPAYNPMGYHIGSVWPHDNSLIAMGLRSLGLIDQALEIFQGLLDMTSQQPYQRPPELFCGYERNGDRSPVQYPVACTPQAWATGSIFQ,not soluble
16,MSLRILVIEDEISLNKTIIDNLNEFGYQTDSSENFKDGEYFIGIRHYDLVLANWTLPDGDGAELVNTIKHKSPRTSVMIMSSKTDKETEIKALKAGADDFVKKPLDFDILLARIEARLRLGGTNVIKIEDLVIDPDEEKITYKGQDIELKGKPFEVLTHLARHSDQIVSKEQLLDAIWEEPELVTPNVIEVAINQIRQKMDKPLNISTIETVRRRGYRFCFPKKSEGHHHHHH,soluble
17,MSLSITFFVTGDNHLGYYEKNLTLKDDCYKLFEQYLKEATQKEGSILLQCGDLFNDLRPNKSCVSKTANLIKKYCIGDADIPYTIKDEAELSYPLNITDPYINVKHPLFTIHGTNDEPSGYKLIAGSEILASCGLVNYISPKSFEEEKMLKPVIIVNEHTKIALYGLSVLYSSDLDEIVEDETFHIKKPNGNDWICILLLYIGKGTISQTTKDIIEKHFNIIILGGQHSCNIPTGDFNGSVIIQPGSPFFLSFDEYDEIKKGFVKIVVEGQKIYIEKKEYKPIHRMIKKEVYIPETLRDCVISKRIEDFIQQEMKKCITEAVIKENEQILLKLIVKDCNQDCYPDTKKISSLLEEDVVNFIDCIKVKKEGHHHHHH,not soluble
18,ITEEEAKLFTEQLGDIIQFAEQLNELDTEGVEPTSHVLDMKNVLREDKPEKGLPVEDVLKNAPDHEDGQIR,not soluble
19,MGSDKIHHHHHHMKIMSIELGKFNQLEVVKQVDFGMYLDGGEEGEILLPTRYVPEDCKLGDWLNVFLYLDNEERLIATTLTPLVQVGEFACLEVSWVNQFGAFLNWGLMKDLFVPFSEQKMKMQVGNKYVIHAHIDDESFRIVASAKVDRYLSKEKASYQPGEEVNILIWQKTDLGFKAIIENMYSGLLYDSEIFQTLHTGDVLKAYVKQVREDGKIDLILQKPGFEKIDDFSKTLHRYITEHGGWIGLTDKSPAEEIYDTFGVSKKTFKKAVGDLYKKRLILLHEDGIELVRP,not soluble
20,TATNHQGLPAVDSEILEMPPEKADGVVEGIDVNGPKAQLMLRYPDGKREQITLPEQAKLLALVKHVQSKGYPNERFELLTNFPRRKLSHLDYDITLQEAGLCPQETVFVQE,soluble
21,AIAGCLFSVPEGGYLEVNEERSAGAYDSLSTASGIDDLHDERQPKAAYSMEDSSADLVAEDGAAVHQEVLNAHDDAWCRFDATSDATNEGAAAGGIGAPPSPLDLSLDSVVQQAYQDRVLVVFSGKAFGIALQLQMHWAALGASSAAPECVMDACVPESLLRAVHACLRAHMHACERIANRWNPDSELSAACSSAHPKKAVEVGTILYALLAEAHRLHRVTGGRFDPTCGALWRGFRATLRSSALQRPPQGRAFST,soluble
22,FDISVLSVAPLRQGETMKQGIDSAVSLAKAVDNMGYKRIWFAEHHNHDAYASAATVSIVQHILANTKDIRVGSGGIMLPNHSPLIVAEQFGTLETLYPNRVDLALGRAPGTDQKTADVIRRSNHNGVFFFEREVNDILRFVGDKSVQGEVRAYPGIGTHVPVFVLGSSTDSAEIAAKLGLPYAFGAQFSPHSMEEALSIYRENFQPSSYLQEPYVIACINVIAAESIDEASFISASHLQVYIDIYTNNLSKLIPPTENFLESLSQFELEILHSRLGYTIMGDRETIRRELIDFQQMYHADELIVLSNIYELSKEIQSYEILKQVVDELFKKRM,not soluble
23,MTITYSGDELFLQLRGDLLNYLCRKLSKDEAADILQEIYLRWRRQDISSIENPRAFLFTVALNLIRDQARRQAHVQTYANTMQHLFQDKPADYDLAQHCDERRQIEYLQQALDQLPENVRHAFLLFRLDGLTFAEIALQMGISSKSVARYIQHASEHCLTALAQYR,not soluble
24,AKWPHLKVGGAILVAPAEPRHSDRTESFGPIFEESLGVPAYVVSSRNDPWMSFTQAERLARAWRADVVDLGFAGHINVDSGFGPWPGGVVLRDELARRPVP,not soluble
